The results in this text go back to article PMC4353692.

This experiment deals with Manduca sexta V-ATPase subunit c (c ring) (Manduca sexta (endogenous in midgut)). Put plainly: cryo-EM structure; M. sexta V-ATPase holoenzyme purified from tissue, in C12E10; 9.4 Å reconstruction (gold standard FSC 0.143); homology models of the subunits flexibly fitted by MDFF; side chains not resolved.

A word on the stoichiometry N: it is a count of units in the complex or per binding partner.

With “Manduca sexta V-ATPase subunit c (c ring) (natural protein)”, the stoichiometry N worked out at 8.
